How the values were obtained:
[1] = biological target: T1, recombinant C-CSP construct (PfCSP_3D7 amino acids 295–374) (Plasmodium falciparum 3D7, UniProt Q7K740); assay: ELISA; details: both partners purified
T1 construct: also called C-terminal domain of PfCSP

[2] = biological target: T2, N-CSP (N-terminus of PfCSP) (Plasmodium falciparum 3D7, UniProt Q7K740); assay: ELISA; details: both partners purified
T2 construct: source: created by Genscript, as previously described [21,40]

[3] = biological target: T3, 36mer repeat peptide (NANP)9 (Plasmodium falciparum repeat, synthetic …); assay: ELISA; antigen coated at 0.5 μg/mL in bicarbonate buffer overnight at 4°C; mAbs 5x10^-7–5.0 μg/mL, 2 hrs at 37°C; HRP-conjugated goat anti-human IgG; AUC of OD450; details: both partners purified
T3 construct: printed as (NANP)9, 36mer; nine NANP tetrapeptides of the central repeat region of Plasmodium falciparum circumsporozoite protein; source: created by Genscript, as previously described [21,40]
T3 chain: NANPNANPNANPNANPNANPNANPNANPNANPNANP

[4] = biological target: T4, full-length recombinant PfCSP (FL-rCSP) (Plasmodium falciparum 3D7 (clone of …, UniProt Q7K740)); assay: ELISA; details: both partners purified
T4 construct: also called PfCSP_3D7

[5] = biological target: full-length PfCSP on transgenic P. berghei sporozoites (Pb-PfCSP-GFP/Luc-SPZ) (Plasmodium falciparum, 3D7 (transgene …, UniProt Q7K740)); assay: flow cytometry on cells; 20 μg/mL mAb on midgut (MG) Pb-PfCSP-SPZ; goat anti-human IgG-Alexa Fluor 647; details: one partner purified

Row | Binder | binding result [1] | binding result [2] | binding result [3] | binding result [4] | binding result [5]
1 | 1710 (antibody, V domains shown) VH: EVQLQESGGGLVKPGGSLRLSCAASGFTFSSYSMNWVRQAPGKGLEWVSSITSSSSYIYYADSVKGRFTISRDNAKNSLYLQMNSLRAEDTAVYYCARDPGIAAADNHWFDPWGQGTLVTVSS VL: not shown | binds | no binding (tested: 5.0 μg/mL) | – | – | –
2 | L7 (antibody, V domains shown) VH: QLQLQESGPGLVKPSETLSLTCTVSGGSISSSNYYWDWIRQPPGKGLEWIGSINYSGSTYYNPSLKSRVTISVDTSKIQFSLKMSSVTAADTAVYYCARRRVDFWSGYNWFDPWGQGTLVTVSS VL: QPVLTQPPSASASMGASVTLTCTLSSGYSKYKVDWYQQRPGKGPRFVMRAGTGGIVGSKGDGIPDRFSVLGSGLNRYLTIKNIQEEDESDYHCGADHGSGSNFVYVFGTGTKVTIL | binds | no binding (tested: 5.0 μg/mL) | no binding (tested: 5.0 μg/mL) | binds | –
3 | L15 (antibody, V domains shown) VH: EVQLVESGGVVVQPGGSLRLSCAASGFTFDDYTMHWVRQAPGKGLEWVSLISWDGGTTYYADSVKGRFTISRDNSKNSLYLRMNSLRTEDTALYYCAKGLVAQWLRGDYYYGLHVWGQGTTVTVSS VL: QSALTQPASVSGSPGQSITISCTGTSSDVGAYNSVSWYQQHPGKAPKLMIYDVTNRPSGVSNRFSGSKSGNTASLTISGLQAEDEADYYCSSYTITNTLVFGGGTKLTVL | binds | no binding (tested: 5.0 μg/mL) | no binding (tested: 5.0 μg/mL) | binds | binds
4 | L4 (antibody, V domains shown) VH: QLQLQESGPRLVKPSETLSLTCTVSGGSISRTSYYWDWIRQPPGKGLEWIGSIYYRGSTYHNPSLKSRVTISVDTSKNQFSLRLTSVTAADTAVYYCARPKNLGVVAATNWFDPWGQGTLVTVSS VL: QSVLTQPPSVSGAPGQRVTISCTGSSSNIGATYDVHWYQQLPGTAPKLLIYDNNNRPSGVPDRFSGSKSGTSASLAITGLQADDEADYYCQSYDSSLSGVVFGGGTKLTVL | binds | no binding (tested: 5.0 μg/mL) | no binding (tested: 5.0 μg/mL) | binds | –
5 | L20 (antibody, V domains shown) VH: EVQLVESGGGLVQPGRSLRLSCAASGFTFDDYAMHWVRQAPGKGLEWVSGINWNSGSIGYADSVKGRFTISRDNARNSLYLQMNGLRAEDTAFYYCAKDLRAYYYGSGSPWGFHHWGQGTLVTVSS VL: QSALTQPPSASGSPGQSVTISCTGTSSDVGGYNYVSWYEQHPGKAPKLLIYEVSKRPSGVPDRFSGSKSGNTASLTVSGLQAEDEADYYCSSYAGSNNVVFGGGTKLTVL | binds | no binding (tested: 5.0 μg/mL) | no binding (tested: 5.0 μg/mL) | binds | –

Reference: publication PMC8675929 (PLoS Pathogens, 2021)
